Laboratory results from the supplement of paper PMC9170038.

Tests used:
[1] = tested on: MS2 coat protein; experiment: apparent KD of MS2 coat protein; designed switch direction (-1 OFF switch, 1 ON switch): 1; higher = weaker reporter binding
Summary of the method: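 Designed RNA switches sharing common flanks were transcribed on Illumina chips by stalled E. coli RNA polymerase. They were titrated with SNAP-549-labelled MS2 coat protein, from 0.7 or 1.5 nM doubling to 3 µM, in Tris-HCl pH 7.5 buffer with KCl, MgCl2, BSA, DTT, tRNA and Tween-20. Titrations ran without input, with 200 uM small-molecule ligand, or with an oligonucleotide input. The apparent KD of each design is the median over its clusters, after curve-fitting of normalised cluster fluorescence.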

[2] = tested on: MS2 coat protein; experiment: apparent KD of MS2 coat protein; higher = weaker reporter binding; details: Eterna round: R107
Summary of the method: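 Titration buffer: 100 mM Tris-HCl pH 7.5, 80 mM KCl, 4 mM MgCl2, without or with constant ligand. Designed RNA switches transcribed on-chip from Illumina sequencing clusters received SNAP-549-labelled MS2 coat protein in twofold steps from 0.7 or 1.5 nM to 3 µM. Apparent KD is the median per design of fits to normalised cluster binding curves.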

[3] = input ligand: microRNA oligo, concentration not stated
[4] = Eterna round: R95, input ligand: FMN 200 uM
[5] = Eterna round: R95, input ligand: microRNA oligo, concentration not stated
[6] = Eterna round: R95, input ligand: none
[7] = input ligand: theophylline 20 uM
[8] = input ligand: theophylline 2 mM
[9] = input ligand: tryptophan 2.4 mM

| Sequence | apparent KD of MS2 coat protein ([2]; input ligand: arginine 13.2 mM) | apparent KD of MS2 coat protein ([2]; input ligand: none) | apparent KD of MS2 coat protein [2, 7] | apparent KD of MS2 coat protein [2, 8] | apparent KD of MS2 coat protein [2, 9] | also measured |
| --- | --- | --- | --- | --- | --- | --- |
| AAAAAACAUGAGGAUCACCCAUGUAAAAAAAUGGGAGGAUAUCUGAAUUAAUUAAAUUAAGGAGAAGGCCUAAAAA [71%, Same state of confusion2, 4] (Eterna round: R96, puzzle: Same State 1) |  |  |  |  |  | apparent KD of MS2 coat protein [1, 3]: 192 nM |
| AAAAGAAACACAGGAUAUACCGCGCUUAACGCGGUAGAAGGGUGGGACAUGAGGAUCACCCAUGUGGCCUGAGCGCCAGGCCGC [Uszadi] (Eterna round: R96, puzzle: Same State NG 1) |  |  |  |  |  | apparent KD of MS2 coat protein ([1]; input ligand: FMN 200 uM): 428 nM; apparent KD of MS2 coat protein [1, 3]: 14.1 nM; apparent KD of MS2 coat protein ([1]; input ligand: none): 299 nM |
| AAAAUGCGGGAAGGAUAUGGGAAAGGAAGUGUACCAGAAGGUCUCGCGGCCAAGGACAUGAGGAUCACCCAUGUUAACGCCCGA [PowerStrip SSNG 1.8] (Eterna round: R96, puzzle: Same State NG 1) |  |  |  |  |  | apparent KD of MS2 coat protein ([1]; input ligand: FMN 200 uM): 204 nM; apparent KD of MS2 coat protein [1, 3]: 43.4 nM; apparent KD of MS2 coat protein ([1]; input ligand: none): 40.8 nM |
| AAAAUUUCUGCACAGGAUAUGUAGUGUUUCACAUGAGGAUCACCCAUGUCAAAACCAGAGACUGUACAGAAGGGUGCGGUCGGAC [Onedxequ] (puzzle: Same State 2) |  |  |  |  |  | apparent KD of MS2 coat protein [1, 4]: 15.8 nM; apparent KD of MS2 coat protein [1, 5]: 10.3 nM; apparent KD of MS2 coat protein [1, 6]: 14.6 nM |
| AAACGACACACAGGAUAUCCGCCAUGCAGGCUCGGAGAAGGGUGUGAAACAUGAGGAUCACCCAUGUAGUCAAAAUAAUAAAGA [Arardixequ] (Eterna round: R96, puzzle: Same State NG 1) |  |  |  |  |  | apparent KD of MS2 coat protein ([1]; input ligand: FMN 200 uM): 47 nM; apparent KD of MS2 coat protein [1, 3]: 62.9 nM; apparent KD of MS2 coat protein ([1]; input ligand: none): 58.9 nM |
| AACAAUCUAUCUGAGGAUAUCAUGAAAUAAACAUGAGGAUCACCCAUGUGCAGGAAAACUGCAUAUGAGAAGGCAGAUAGUUUGA [salish99_ss2_r3_056] (puzzle: Same State 2) |  |  |  |  |  | apparent KD of MS2 coat protein [1, 4]: 47.5 nM; apparent KD of MS2 coat protein [1, 5]: 716 nM; apparent KD of MS2 coat protein [1, 6]: 855 nM |
| UUAUUUAACGGAAGGAGCGCGGAUAAAAUAGUGGGUAAACAUGAGGAUCACCCAUGUAAACCGCAGGUAGGUCGCCGAUAUUUAU [AstrosEXyARgB#5] | 21.5 nM | 43.1 nM | 48.8 nM | 33.2 nM | 35.9 nM |  |
| UUCACAUGGUAUGAAUAUACAUACAAGAAACGAGGACCGGUACGGCCGCCACUCGUGCCGGAAACAUGAGGAUCACCCAUGUGUU [AK1.2 Exclusion TrypA mod IceBolt] | 21.5 nM |  | 41.2 nM | 41.2 nM |  |  |
| UUGGGUAUGCGAAGGAGCGGGAAAUAUAUAUAUAUAAUCCUAACAUGAGGAUCACCCAUGUCCCAGGUAGGUCGCGCAUGUUUGG [12.K] | 128 nM | 207 nM | 250 nM | 423 nM | 247 nM |  |
| UUGGGUUUGCGAAGGAGCGGGUAUGUUUUCUAGUGGAUCCUAACAUGAGGAUCACCCAUGUCCCAGGUAGGUCGCGCGGGUUUGG [12.V] | 89.1 nM | 122 nM | 230 nM | 224 nM | 148 nM |  |
| UUGGGUUUGUGAAGGAGCGGGAAAUAUAUAUAUAUAAUCCUAACAUGAGGAUCACCCAUGUCCCAGGUAGGUCGCGCGGGUUUGG [12.N] | 46.4 nM | 60.2 nM | 63.5 nM | 65.5 nM | 51.6 nM |  |
| UUUACAUGAGGAUCACCCAUGUGCCAUGAUACCAGACAUGAAAAUGUCCCUUGGCAGCAUGAGUGAUGCAUCCGAAAGGAUGUUU [Ivanovice] | 97.2 nM |  | 197 nM |  | 52.4 nM |  |
| UUUGAUAGAACAGAUACCAGCGUGUUAUAAAACAUGAGGAUCACCCAUGUAGUGAUCAAGCGCCCUUGGCAGCUGGUUUGUUAGG [7.I] | 76.4 nM |  | 122 nM |  | 161 nM |  |
| UUUGGCGGCGAUCUGGGUUUCCCAGAUCGGCGAGGACCGGUACGGCCGCCACUCGUGUUUCUUUGACAUGAGGAUCACCCAUGUA [whbob_SS_trypto A_f4] | 51.5 nM | 62.7 nM | 82.7 nM | 93.9 nM | 42.8 nM |  |
| UUUGUAAUUGUCUGGUAGAUUUAUUUAUUUCGAGGACCGGUACGGCCGCCACUCGUUAAUUACAUGAGGAUCACCCAUGUUAGCU [JR_ExcTryptoA_Sub008] | 14.1 nM |  | 17.1 nM | 15 nM |  |  |
